For orientation: stoichiometry N means the number of molecules, sites or subunits per partner or assembly.

For this assay, the target named is Butelase AY (Butelase 1 V237A/T238Y), zymogenic form before activation (Clitoria ternatea). Description: SEC. In general terms: In gel filtration, larger molecules generally elute earlier.

In turn, “Butelase AY (Butelase 1 V237A/T238Y), zymogenic form before activation (enzyme)” came in with a stoichiometry N of 2.

For the origin of these results see publication PMC11607802.
